Experimental data from paper PMC10770331, “The virulence regulator VirB from Shigella flexneri uses a CTP-dependent switch mechanism to activate gene expression” (Nature Communications, 2024).

Experiments:
VirB (Shigella flexneri) = target: T1, VirB (Shigella flexneri) (UniProt P0A247); assay: BLI; conditions: BLI: 25 mM HEPES/NaOH pH 7.5, 150 mM (low stringency) or 500 mM (high stringency) NaCl, 5 mM MgCl2, 1 mM DTT, 10 uM BSA, 0.01% Tween 20, +/-1 mM nucleotide …
T1 sequence: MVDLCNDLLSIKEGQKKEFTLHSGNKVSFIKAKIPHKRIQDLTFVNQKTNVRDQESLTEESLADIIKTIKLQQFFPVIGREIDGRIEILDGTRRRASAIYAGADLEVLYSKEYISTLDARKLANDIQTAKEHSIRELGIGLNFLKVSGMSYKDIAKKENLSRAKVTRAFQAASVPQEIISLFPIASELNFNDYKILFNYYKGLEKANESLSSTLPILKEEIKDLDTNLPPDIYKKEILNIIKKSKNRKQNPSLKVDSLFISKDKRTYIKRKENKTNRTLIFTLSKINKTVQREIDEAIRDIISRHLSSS

VirB [1] = target: T2, VirB (Shigella flexneri, UniProt P0A247); assay: microscale thermophoresis; supported by HDX-MS, crosslinking and weak CTPase activity; type: binding
T2 construct: purified recombinant wild-type VirB, His6-SUMO tag removed; encoded on virulence plasmid pINV

VirB [2] = target: T2, VirB; assay: isothermal titration calorimetry (MST KD […]); type: binding
VirB [3] = target: T2, VirB; assay: isothermal titration calorimetry; type: binding
[4] = target: the molecule itself; assay: mass photometry; ~100 nM protein in high-stringency buffer (25 mM HEPES/NaOH pH 7.5, 5 mM MgCl2, 500 mM NaCl, 1 mM DTT), without or with 1 mM CTP; oligomeric state in solution
[5] = target: the molecule itself; assay: cross-linking; 10 µM protein, room temperature, 25 mM HEPES/NaOH pH 7.5, 500 mM NaCl, 5 mM MgCl2, 0.1 mM EDTA; alone, with 1 mM CTP and/or 1 µM virS DNA oligonucleotide; 1 mM BMOE for 1 min, SDS-PAGE; homodimerization of the two N-terminal NBDs within the VirB dimer (clamp closure)
VirB [6] = target: T3, VirB (Shigella flexneri, UniProt P0A247 1-309); assay: BLI; 150 mM NaCl, without and with CTP; BLI: 25 mM HEPES/NaOH pH 7.5, 150 mM (low stringency) or 500 mM (high stringency) NaCl, 5 mM MgCl2, 1 mM DTT, 10 uM BSA, 0.01% Tween 20, +/-1 mM nucleotide; temperature not stated; conditions: protein: recombinant; tags: none (His6-SUMO removed by Ulp1); chain copies: 2; label: 5' biotin-TEG on strand 1; blunt; one end open
T3 sequence: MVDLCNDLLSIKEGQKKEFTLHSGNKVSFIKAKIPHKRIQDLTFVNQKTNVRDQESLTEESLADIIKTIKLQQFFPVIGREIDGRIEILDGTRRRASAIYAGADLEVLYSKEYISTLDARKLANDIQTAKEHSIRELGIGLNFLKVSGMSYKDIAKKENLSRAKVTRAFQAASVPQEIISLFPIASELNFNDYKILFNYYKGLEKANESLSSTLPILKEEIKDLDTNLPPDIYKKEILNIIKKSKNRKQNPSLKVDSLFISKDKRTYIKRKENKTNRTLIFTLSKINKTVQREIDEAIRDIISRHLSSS

For NdeI-opened virS DNA (from 215 bp), which binding signal (fraction of maximum signal on closed DNA) (VirB (Shigella flexneri)) is on record?
The binding signal (fraction of maximum signal on closed DNA) was 0.25.

For Nc1ccn([C@@H]2O[C@H](COP(=O)(O)OP(=O)(O)OP(=O)(O)O)[C@@H](O)[C@H]2O)c(=O)n1 [CTP], which Kd (VirB [1]) is on record?
Its Kd is 11 µM.

Which Kd (VirB [2]) does the source give for Nc1ccn([C@@H]2O[C@H](COP(=O)(O)OP(=O)(O)O)[C@@H](O)[C@H]2O)c(=O)n1 [CDP] here?
The Kd was roughly 91 µM.

How did the Kd (VirB (Shigella flexneri)) turn out when “AATATATTCAATTAATAAATTTAGAAACTTGAGCCTGTTAACATAATCAAATTTTCTTTTGCTGTACATAATATGTACCTCGTGAGCATATGTAGTGCTCGTTTCATCATGAAATCCCACAAGATAAAGTGCCTGATGTATCAGGCTCGGAGTGTTATAGAAAAAGAGAGAACCCTGTTGAATAAGTATCTTTTTTGTTGTAAAACGAGGTACAA (double strand) [closed virS DNA (215 bp)]” was run?
The Kd was 2.3 µM.

Nc1ccn([C@@H]2O[C@H](COP(=O)(O)OP(=O)(O)OP(O)(O)=S)[C@@H](O)[C@H]2O)c(=O)n1 [CTPγS] was tested. Which Kd (VirB [3]) did it give?
Its Kd is roughly 12 µM.

B1: VirB from Shigella flexneri (wild type) (natural protein)
chain: MVDLCNDLLSIKEGQKKEFTLHSGNKVSFIKAKIPHKRIQDLTFVNQKTNVRDQESLTEESLADIIKTIKLQQFFPVIGREIDGRIEILDGTRRRASAIYAGADLEVLYSKEYISTLDARKLANDIQTAKEHSIRELGIGLNFLKVSGMSYKDIAKKENLSRAKVTRAFQAASVPQEIISLFPIASELNFNDYKILFNYYKGLEKANESLSSTLPILKEEIKDLDTNLPPDIYKKEILNIIKKSKNRKQNPSLKVDSLFISKDKRTYIKRKENKTNRTLIFTLSKINKTVQREIDEAIRDIISRHLSSS
notes: VirB of S. flexneri, UniProt P0A247; Native C5 was used for BMOE cross-linking; also called WT; wild-type VirB; source: E. coli Rosetta(DE3)pLysS, purified (IMAC, Ulp1 cleavage of the His6-SUMO tag, second IMAC, SEC); not shown: His6, N-terminal, cleaved; SUMO, N-terminal, cleaved
With B1 as the molecule, how does the “stoichiometry N” value [4] read?
Its value is 2.

B2: VirB-C5S/Q15C (natural protein)
chain: MVDLSNDLLSIKEGCKKEFTLHSGNKVSFIKAKIPHKRIQDLTFVNQKTNVRDQESLTEESLADIIKTIKLQQFFPVIGREIDGRIEILDGTRRRASAIYAGADLEVLYSKEYISTLDARKLANDIQTAKEHSIRELGIGLNFLKVSGMSYKDIAKKENLSRAKVTRAFQAASVPQEIISLFPIASELNFNDYKILFNYYKGLEKANESLSSTLPILKEEIKDLDTNLPPDIYKKEILNIIKKSKNRKQNPSLKVDSLFISKDKRTYIKRKENKTNRTLIFTLSKINKTVQREIDEAIRDIISRHLSSS
notes: VirB of S. flexneri, UniProt P0A247, lacking the native cysteine at position 5 and carrying an engineered cysteine at position 15; source: E. coli Rosetta(DE3)pLysS, purified (IMAC, Ulp1 cleavage of the His6-SUMO tag, second IMAC, SEC); not shown: His6, N-terminal, cleaved; SUMO, N-terminal, cleaved
Does B2 bind [5]?
Result: binds

B3: open virS oligonucleotide (23 bp) (dsDNA)
DNA 1: GCTCGTTTCATCATGAAATCCCA
DNA 2: TGGGATTTCATGATGAAACGAGC
Does B3 bind (VirB [6])?
Result: binds
